# Measurements as given in US20230374071A1, “COMPOSITIONS FOR INDUCING URINARY VOIDING AND DEFECATION” (Dignify Therapeutics, LLC, priority 2020, published 2023).
# Starred links: 1 amine or outer side, 2 acyl side, 3 side chain; linkers in the order of their positions; H or OH if unused. Non-standard residues stand in square brackets, D forms with d. No end group written: not given here. gc = gamma constrained Gly-(R-gamma-lactam)-Leu moiety, (S)-2-((R)-3-amino)-2-oxopyrrolidin-1-yl)-4-methylpentanoyl, between Val and the C-terminal residue, CC(C)C[C@@H](C(=O)[*:2])N1CC[C@@H](N[*:1])C1=O; Nle = CCCC[C@H](N)C(=O)O; βAla = NCCC(=O)O
# T1: human neurokinin 2 receptor (human, UniProt P21452 1-398)
# T1 sequence (looked up): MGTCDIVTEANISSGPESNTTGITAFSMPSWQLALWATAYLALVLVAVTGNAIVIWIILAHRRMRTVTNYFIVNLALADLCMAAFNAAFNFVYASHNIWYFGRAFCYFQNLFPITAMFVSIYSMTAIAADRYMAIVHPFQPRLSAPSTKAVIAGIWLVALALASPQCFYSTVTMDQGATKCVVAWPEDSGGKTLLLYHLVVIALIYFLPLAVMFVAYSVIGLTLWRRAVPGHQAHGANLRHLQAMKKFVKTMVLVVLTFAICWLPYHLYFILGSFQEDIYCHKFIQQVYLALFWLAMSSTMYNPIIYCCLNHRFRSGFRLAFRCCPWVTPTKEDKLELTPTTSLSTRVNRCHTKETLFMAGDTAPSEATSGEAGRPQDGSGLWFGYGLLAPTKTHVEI
# Columns and labels:
# Assay in all cases: cell-based or functional assay
# [1] = molecular target: T1, human neurokinin 2 receptor
# [2] = molecular target: T2, human neurokinin 1 receptor (human, UniProt P25103 1-407)
# [3] = molecular target: T1, human neurokinin 2 receptor; remark: listed apart in the source
# [4] = molecular target: T2, human neurokinin 1 receptor; remark: listed apart in the source
# T2 sequence (P25103 whole entry): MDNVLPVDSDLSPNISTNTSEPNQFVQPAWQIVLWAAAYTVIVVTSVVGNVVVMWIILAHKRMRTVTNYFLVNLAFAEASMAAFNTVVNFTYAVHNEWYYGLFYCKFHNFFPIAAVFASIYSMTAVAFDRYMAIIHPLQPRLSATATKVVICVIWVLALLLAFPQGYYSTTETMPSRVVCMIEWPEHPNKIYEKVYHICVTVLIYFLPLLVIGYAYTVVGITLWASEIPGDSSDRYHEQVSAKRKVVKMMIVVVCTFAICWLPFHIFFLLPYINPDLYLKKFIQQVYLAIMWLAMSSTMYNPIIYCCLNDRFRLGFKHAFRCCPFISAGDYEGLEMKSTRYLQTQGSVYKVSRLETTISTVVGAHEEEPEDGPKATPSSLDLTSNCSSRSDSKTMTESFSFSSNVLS
Binder,maximal calcium response [1],maximal calcium response [2],NK2R/NK1R selectivity ratio [3],"hNK2R pEC50 (intracellular calcium mobilization, FLIPR, CHO cells) [3]","hNK1R pEC50 (intracellular calcium mobilization, FLIPR, CHO cells) [4]"
DRFV[gc]M-NH2 (N-terminus assumed; SMILES CSCC[C@H](NC(=O)[C@H](CC(C)C)N1CC[C@@H](NC(=O)[C@@H](NC(=O)[C@H](Cc2ccccc2)NC(=O)[C@H](CCCNC(=N)N)NC(=O)[C@@H](N)CC(=O)O)C(C)C)C1=O)C(N)=O) [Compound E (Asp-Arg-Phe-Val-gc-Met-NH2)],≥ 85 % maximal response compared to Neurokinin A,≥ 85 % maximal response compared to Substance P,90 fold,9.71,7.76
DRFV[gc][Nle]-NH2 (N-terminus assumed; SMILES CCCC[C@H](NC(=O)[C@H](CC(C)C)N1CC[C@@H](NC(=O)[C@@H](NC(=O)[C@H](Cc2ccccc2)NC(=O)[C@H](CCCNC(=N)N)NC(=O)[C@@H](N)CC(=O)O)C(C)C)C1=O)C(N)=O) [Compound F (Asp-Arg-Phe-Val-gc-Nle-NH2)],≥ 85 % maximal response compared to Neurokinin A,≥ 85 % maximal response compared to Substance P,93 fold,8.6,6.63
KDSFV[βAla]L[Nle]-NH2 (N-terminus assumed; SMILES CCCC[C@H](NC(=O)[C@H](CC(C)C)NC(=O)CCNC(=O)[C@@H](NC(=O)[C@H](Cc1ccccc1)NC(=O)[C@H](CO)NC(=O)[C@H](CC(=O)O)NC(=O)[C@@H](N)CCCCN)C(C)C)C(N)=O) [Compound J (Lys-Asp-Ser-Phe-Val-(β-Ala)-Leu-Nle-NH2)],≥ 85 % maximal response compared to Neurokinin A,≥ 85 % maximal response compared to Substance P,23 fold,7.88,6.52
KDSFV[gc][Nle]-NH2 (N-terminus assumed; SMILES CCCC[C@H](NC(=O)[C@H](CC(C)C)N1CC[C@@H](NC(=O)[C@@H](NC(=O)[C@H](Cc2ccccc2)NC(=O)[C@H](CO)NC(=O)[C@H](CC(=O)O)NC(=O)[C@@H](N)CCCCN)C(C)C)C1=O)C(N)=O) [Compound G (Lys-Asp-Ser-Phe-Val-gc-Nle-NH2)],≥ 85 % maximal response compared to Neurokinin A,≥ 73 % maximal response compared to Substance P,206 fold,8.11,5.79
